Results: patent US20250163162A1

Target: IL10 receptor (IL10R) (human) (UniProt Q13651)
Test: cell-based or functional assay

Chain of IL10 receptor (IL10R) (human) (Q13651 22-578, chain 1 of 2): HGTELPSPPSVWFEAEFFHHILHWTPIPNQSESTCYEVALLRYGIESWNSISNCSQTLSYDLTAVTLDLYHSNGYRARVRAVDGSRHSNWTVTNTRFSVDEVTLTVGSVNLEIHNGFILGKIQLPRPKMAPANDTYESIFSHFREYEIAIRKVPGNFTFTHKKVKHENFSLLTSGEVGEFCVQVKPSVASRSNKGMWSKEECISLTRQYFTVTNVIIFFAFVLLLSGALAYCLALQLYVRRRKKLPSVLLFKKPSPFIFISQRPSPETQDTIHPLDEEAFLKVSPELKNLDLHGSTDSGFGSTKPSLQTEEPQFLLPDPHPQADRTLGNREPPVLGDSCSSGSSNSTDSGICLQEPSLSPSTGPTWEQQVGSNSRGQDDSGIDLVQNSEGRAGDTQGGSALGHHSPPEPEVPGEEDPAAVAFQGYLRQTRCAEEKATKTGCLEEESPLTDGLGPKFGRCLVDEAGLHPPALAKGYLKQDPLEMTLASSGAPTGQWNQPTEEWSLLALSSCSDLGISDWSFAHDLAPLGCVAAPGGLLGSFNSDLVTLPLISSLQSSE
Chain of IL10 receptor (IL10R) (human) (Q08334 20-325, chain 2 of 2, further chain): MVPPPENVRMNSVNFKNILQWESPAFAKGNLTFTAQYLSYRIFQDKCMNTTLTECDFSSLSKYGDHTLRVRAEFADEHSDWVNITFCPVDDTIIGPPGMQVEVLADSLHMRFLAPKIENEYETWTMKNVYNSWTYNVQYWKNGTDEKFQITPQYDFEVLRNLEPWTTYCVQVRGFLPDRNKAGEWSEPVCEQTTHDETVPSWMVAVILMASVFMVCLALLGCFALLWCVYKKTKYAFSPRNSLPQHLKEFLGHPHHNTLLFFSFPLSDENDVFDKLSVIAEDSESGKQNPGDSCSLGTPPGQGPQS

wild-type human IL10 (wt hIL10) (from UniProt P22301 19-178) (ligand)
pSTAT3 MFI, B cells, 0.0001 nM (unstimulated 1193.5): 1160 MFI
pSTAT3 MFI, B cells, 0.001 nM (unstimulated 1193.5): 1140 MFI
pSTAT3 MFI, B cells, 0.01 nM (unstimulated 1193.5): 1220 MFI
pSTAT3 MFI, B cells, 0.1 nM (unstimulated 1193.5): 1780 MFI
pSTAT3 MFI, B cells, 1 nM (unstimulated 1193.5): 3950 MFI
pSTAT3 MFI, B cells, 10 nM (unstimulated 1193.5): 3930 MFI
pSTAT3 MFI, B cells, 100 nM (unstimulated 1045): 2400 MFI
pSTAT3 MFI, B cells, 100 nM (unstimulated 1193.5): 2620 MFI
pSTAT3 MFI, CD4+ T cells, 100 nM (unstimulated 1778): 9660 MFI
pSTAT3 MFI, CD4 T cells, 0.0001 nM (unstimulated 1887): 1970 MFI
pSTAT3 MFI, CD4 T cells, 0.001 nM (unstimulated 1887): 1880 MFI
pSTAT3 MFI, CD4 T cells, 0.01 nM (unstimulated 1887): 2220 MFI
pSTAT3 MFI, CD4 T cells, 0.1 nM (unstimulated 1887): 5170 MFI
pSTAT3 MFI, CD4 T cells, 1 nM (unstimulated 1887): 10700 MFI
pSTAT3 MFI, CD4 T cells, 10 nM (unstimulated 1887): 10800 MFI
pSTAT3 MFI, CD4 T cells, 100 nM (unstimulated 1887): 9560 MFI
pSTAT3 MFI, CD8+ T cells, 100 nM (unstimulated 1288): 8810 MFI
pSTAT3 MFI, CD8 T cells, 0.0001 nM (unstimulated 1446): 1700 MFI
pSTAT3 MFI, CD8 T cells, 0.001 nM (unstimulated 1446): 1430 MFI
pSTAT3 MFI, CD8 T cells, 0.01 nM (unstimulated 1446): 1720 MFI
pSTAT3 MFI, CD8 T cells, 0.1 nM (unstimulated 1446): 4300 MFI
pSTAT3 MFI, CD8 T cells, 1 nM (unstimulated 1446): 8890 MFI
pSTAT3 MFI, CD8 T cells, 10 nM (unstimulated 1446): 9890 MFI
pSTAT3 MFI, CD8 T cells, 100 nM (unstimulated 1446): 9010 MFI
pSTAT3 MFI, Monocytes, 0.0001 nM (unstimulated 2116): 2050 MFI
pSTAT3 MFI, Monocytes, 0.001 nM (unstimulated 2116): 2140 MFI
pSTAT3 MFI, Monocytes, 0.01 nM (unstimulated 2116): 2840 MFI
pSTAT3 MFI, Monocytes, 0.1 nM (unstimulated 2116): 9550 MFI
pSTAT3 MFI, Monocytes, 1 nM (unstimulated 2116): 28900 MFI
pSTAT3 MFI, Monocytes, 10 nM (unstimulated 2116): 30900 MFI
pSTAT3 MFI, Monocytes, 100 nM (unstimulated 1787): 27100 MFI
pSTAT3 MFI, Monocytes, 100 nM (unstimulated 2116): 26600 MFI
pSTAT3 MFI, NK cells, 0.0001 nM (unstimulated 1315): 1310 MFI
pSTAT3 MFI, NK cells, 0.001 nM (unstimulated 1315): 1270 MFI
pSTAT3 MFI, NK cells, 0.01 nM (unstimulated 1315): 1380 MFI
pSTAT3 MFI, NK cells, 0.1 nM (unstimulated 1315): 2280 MFI
pSTAT3 MFI, NK cells, 1 nM (unstimulated 1315): 4620 MFI
pSTAT3 MFI, NK cells, 10 nM (unstimulated 1315): 5700 MFI
pSTAT3 MFI, NK cells, 100 nM (unstimulated 1149): 4380 MFI
pSTAT3 MFI, NK cells, 100 nM (unstimulated 1315): 4790 MFI
